In US20240174744A1 (SCIRHOM, published 2024):
Positions count from the first letter of the chain named.

B1: antibody 48 (antibody, V domains shown)
VH: QVQLQQSGTELVRPGTSVKVSCKASGYAFTNYLIEWVKQRPGQGLEWIGVINPGSGFTKYNEKFKGKATLTADKSSSTVYMHLSSLTSEDSAVYFCARGLYRAMDYWGQGTSVTVSS
VL: DIQMTQSPASQSASLGESVTITCLASQTIATWLAWYQQKPGKSPQLLIYGATTLADGVPSRFSGGGSGTKFSFKISSLQAEDFVSYYCQQLYSTPYTFGGGTKLEIK
notes: Mouse IgG, kappa light chain; also called clone #48; purified antibody 48
B2: antibody 47 (antibody, V domains shown)
VH: B1 VH with T9A, K59N, T69I, T71N, V79A, H82Q, S84I, G99D, Y101K, Y106H
VL: B1 VL with A30G, Y49H, G50A, T53S, G65S, L91I, T94S
notes: Mouse IgG, kappa light chain; also called clone #47
B3: antibody 50 (antibody, V domains shown)
VH: B1 VH with T9A, T16A, T30S, V79A, H82Q
VL: B1 VL with A30G, G50A, T52A, T53S, S85N, L91I
notes: Mouse IgG, kappa light chain; also called clone #50; purified antibody 50
B4: antibody 51 (antibody, V domains shown)
VH: QVQLQQSGAELVKPGASVKISCKASGYTFSNYWMNWVKQRPGKGLEWIGQIYPGDGDTKYNGKFKNKATLTADKSSSTAYMQFSSLTSEDSAVYFCARGDLVFVYWGLGTLVTVSA
VL: DVQITQSPSYLAVSPGETITINCRASKNIRKYLAWYQEKPGKTNKLLIYSGSTSQSGVPSRFSGSGSGTDFTLTISSLEPEDFAMYYCQQHNEYPYTFGGGTKLEIK
notes: Mouse IgG, kappa light chain; also called clone #51
B5: antibody 43 (antibody, V domains shown)
VH: QVALKESGPGILQPSQTLSLTCSFSGFSLSTFGMGVGWIRQSSGKGLEWLANIWWDDDKYYNPALKSRLTISKDASKNQAFLKIANVDTADTATYYCARIGNYGSNYWYFDVWGTGTTVTVSS
VL: QIVLTQSPAIMSASPGERVTMTCSANSRISYMYWYQQKPGSSPRLLIYDTSNLASGVPVRFSGSGSGTSYSLTISRMEAEDAATYNCQQWSSYPLTFGAGTKLELK
notes: Mouse IgG, kappa light chain; also called clone #43
B6: antibody 5 (antibody, V domains shown)
VH: B5 VH with A3T, S42P, N52H, D58E, P63S, D74A, A75T, G101S, D111N
VL: QVVLTQSPALMSASPGEKVTMTCSAGSSVSCMYWYQQKPGSSPRVLIYDTSNLASGVPARFTGSGSGTSYSLTISRMEAEDAASYYCQQWNSYPLTFGAGTKLELK
notes: Mouse IgG, kappa light chain; also called clone #5; purified antibody 5
B7: antibody 44 (antibody, V domains shown)
VH: B5 VH with A3T, S42P, G44E, N52H, A75T, A80I, A85T, D91E, A98S
VL: QIVLTQSPAVMSASPGEKVTMTCTASSSVYYMYWYQQTPGSSPRLLIYDTSNLASGVPVRFSGSGSGTSYSLTISRMEAEDAATYYCQQWNTYPLTFGAGTKLELK
notes: Mouse IgG, kappa light chain; also called clone #44; m44
B8: antibody 16 (antibody, V domains shown)
VH: QVTLKESGPGILQPSQTLSLTCSFSGFSLSTFALGVGWIRQPSGRGLEWLAHIWWDDDKYYNPALKSRLTISKDTSKNHVFLKIANVDTADTATYYCARITTYYYGMDYWGQGTSVTVSS
VL: DIVLSQSPATLSVTPGDSVSLFCRASQSIGNHLHWYQQESHASPRLLIKYASQSISGIPSRFSGSGSGTDFTLSINSVETEDFGMYFCQQSYNWPLTFGAGTKLELK
notes: Mouse IgG, kappa light chain; also called clone #16; m16
B9: antibody 3 (antibody, V domains shown)
VH: QVTLKESGPGILQPSQTLSLTCSFSGFSLTTFAMGIGWVRQPSGKGLEWLAHIWWDGEKYNNPVLKSRLTISKDTSKNQVFLRIANVDTPDTATYYCARISSIYYIIDNWGQGTSVTVSS
VL: B8 VL with S5T, D17H, F22S, G30S, H32N, Q38K, E39K, A42E, A51V
notes: Mouse IgG, kappa light chain; also called clone #3; purified antibody 3

Biological target: T1, miR2-FL-WT-FLAG (mouse iRhom2 full length wild type C-terminally tagged with the triple-FLAG epitope) (mouse, UniProt Q80WQ6 1-827)
T1 construct: also called expressed by MEF-DKO-miR2-FL-WT-FLAG cells
T1 sequence: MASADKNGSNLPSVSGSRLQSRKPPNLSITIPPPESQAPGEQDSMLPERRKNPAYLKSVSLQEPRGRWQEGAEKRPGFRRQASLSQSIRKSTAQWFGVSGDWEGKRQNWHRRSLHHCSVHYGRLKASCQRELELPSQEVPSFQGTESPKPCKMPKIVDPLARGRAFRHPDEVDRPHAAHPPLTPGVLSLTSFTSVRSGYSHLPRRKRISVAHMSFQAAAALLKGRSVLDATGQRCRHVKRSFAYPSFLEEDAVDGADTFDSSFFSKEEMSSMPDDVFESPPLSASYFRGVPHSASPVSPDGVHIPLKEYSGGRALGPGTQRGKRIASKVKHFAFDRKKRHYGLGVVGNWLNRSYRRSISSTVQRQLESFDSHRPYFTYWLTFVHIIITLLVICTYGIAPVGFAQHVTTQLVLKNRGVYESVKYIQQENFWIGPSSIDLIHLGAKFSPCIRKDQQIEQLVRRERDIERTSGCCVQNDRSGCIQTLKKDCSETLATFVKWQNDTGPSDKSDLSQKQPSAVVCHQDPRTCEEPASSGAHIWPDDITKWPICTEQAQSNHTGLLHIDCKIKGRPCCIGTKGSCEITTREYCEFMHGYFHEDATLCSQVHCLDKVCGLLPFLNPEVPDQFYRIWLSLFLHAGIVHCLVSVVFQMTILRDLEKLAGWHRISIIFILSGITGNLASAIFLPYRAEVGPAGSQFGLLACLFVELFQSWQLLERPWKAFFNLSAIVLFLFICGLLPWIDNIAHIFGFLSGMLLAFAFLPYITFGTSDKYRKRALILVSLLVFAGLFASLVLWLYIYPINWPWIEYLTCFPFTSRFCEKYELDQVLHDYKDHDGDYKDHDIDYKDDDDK
Test: FACS, MEF-DKO-miR2-FL-WT-FLAG cells
Method: In brief, immortalized MEF-DKO-EV control cells, MEF-DKO-hiR2-FL-WT-FLAG cells and MEF-DKO-miR2-FL-WT-FLAG cells were harvested with 10 mM EDTA in PBS, washed and resuspended in FACS buffer (PBS, 3% FBS, 0.05% sodium azide), and seeded in Nunc U-bottom 96-well plates (Thermo Fisher Scientific, USA) at approximately 3×10⁵ cells per well. To pellet cells and remove supernatants, the plates were centrifuged at 1,500 rpm and 4° C. for 3 minutes. For primary staining, cells were resuspended in 100 μl per well of either FACS buffer alone (controls), mouse monoclonal anti-FLAG IgG (Sigma-Aldrich, USA) at 3 μg/ml FACS buffer or the antibodies of the present disclosure also at 3 μg/ml FACS buffer and incubated on ice for 1 hour. Afterwards, plates were centrifuged at 1,500 rpm and 4° C. for 3 minutes and washed twice with 200 μl per well of FACS buffer. For secondary staining, cells were spun down and resuspended in 100 μl per well of PE-conjugated goat anti-mouse IgG F(ab′)2 detection fragment (Dianova, Germany) diluted 1:100 in FACS buffer. Protected from light, the cell suspensions were incubated on ice for 1 hour. Plates were then centrifuged at 1,500 rpm and 4° C. for 3 minutes and washed three times with 200 μl per well of FACS buffer. Finally, cells were resuspended in 150 μl per well of FACS buffer and analyzed using a BD Accuri™ C6 Plus flow cytometer (Becton Dickinson, Germany).

Binder	binding result
B1	no binding (tested: 3 µg/ml)
B2	no binding (tested: 3 µg/ml)
B3	no binding (tested: 3 µg/ml)
B4	no binding (tested: 3 µg/ml)
B5	no binding (tested: 3 µg/ml)
B6	no binding (tested: 3 µg/ml)
B7	no binding (tested: 3 µg/ml)
B8	no binding (tested: 3 µg/ml)

Biological target: T2, human iRhom2 (inactive rhomboid protein 2, isoform 1), endogenously expressed on human cells (human, UniProt Q6PJF5 1-856)
T2 sequence: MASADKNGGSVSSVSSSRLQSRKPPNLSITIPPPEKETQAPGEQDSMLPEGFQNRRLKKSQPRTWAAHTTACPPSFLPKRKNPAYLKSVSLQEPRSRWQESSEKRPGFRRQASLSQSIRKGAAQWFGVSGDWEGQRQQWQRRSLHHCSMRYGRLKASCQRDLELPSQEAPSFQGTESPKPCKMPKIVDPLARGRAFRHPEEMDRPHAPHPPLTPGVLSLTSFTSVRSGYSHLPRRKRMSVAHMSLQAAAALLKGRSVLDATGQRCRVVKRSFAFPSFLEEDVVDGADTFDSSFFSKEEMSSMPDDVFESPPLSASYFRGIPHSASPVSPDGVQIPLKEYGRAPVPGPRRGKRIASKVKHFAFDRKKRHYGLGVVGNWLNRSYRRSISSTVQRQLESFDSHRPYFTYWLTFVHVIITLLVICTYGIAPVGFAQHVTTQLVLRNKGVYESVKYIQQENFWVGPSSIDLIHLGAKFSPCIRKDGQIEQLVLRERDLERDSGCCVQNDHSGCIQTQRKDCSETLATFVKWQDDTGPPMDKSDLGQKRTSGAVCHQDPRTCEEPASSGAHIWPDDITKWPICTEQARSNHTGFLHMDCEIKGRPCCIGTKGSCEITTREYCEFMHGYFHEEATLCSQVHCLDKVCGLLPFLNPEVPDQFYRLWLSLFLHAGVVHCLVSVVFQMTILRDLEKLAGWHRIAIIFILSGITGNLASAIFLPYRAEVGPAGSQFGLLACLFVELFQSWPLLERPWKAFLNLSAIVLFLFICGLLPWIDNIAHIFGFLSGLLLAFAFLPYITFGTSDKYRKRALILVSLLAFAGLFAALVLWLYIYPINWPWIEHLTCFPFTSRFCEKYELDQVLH
Test: cell-based or functional assay

Binder	inhibition of LPS-induced release of TNFα from THP-1 cells, 10 µg/ml, antibody purified from hybridoma [% inhibition]	inhibition of LPS-induced release of TNFα from THP-1 cells, recombinant antibody [% inhibition]	inhibition of PMA-induced release of IL-6R from THP-1 cells, 1 µg/ml [% inhibition]	inhibition of PMA-induced release of IL-6R from U-937 cells, 1 µg/ml [% inhibition]	inhibition of PMA-induced release of TGFα from PC3 cells, 1 µg/ml [% inhibition]	inhibition of PMA-induced release of TNFα from U-937 cells, 1 µg/ml [% inhibition]	inhibition of PMA-induced release of HB-EGF from THP-1 cells, 3 µg/ml [% inhibition]	inhibition of PMA-induced release of HB-EGF from U-937 cells [% inhibition]	inhibition of PMA-induced release of IL-6R from U-937 cells, 3 µg/ml [% inhibition]	inhibition of PMA-induced release of TNFα from U-937 cells, 3 µg/ml [% inhibition]
B5	74.8	78.5	72.9	76.1	12.4	78.3				
B6	69	70.5	64.1	67		63.6				
B7	32.2	73.2	73	71.8	14.1	76.5	67.5	100	82	86.3
B8	65.4	70.7	72.5	77.7	13.9	91.6	71.9	99.6	77.4	91.9
B9	71.2	59.9	46.7	61.8		65.9				

Same assay, conditions: not given

Binder	inhibition of LPS-induced release of TNFα from PBMCs of healthy donors, 1 µg/ml [% inhibition]	inhibition of LPS-induced release of TNFα from human macrophages of healthy donors [% inhibition]	inhibition of PMA-induced release of HB-EGF from PBMCs of healthy donors, 1 µg/ml [% inhibition]	inhibition of PMA-induced release of IL-6R from PBMCs of healthy donors, 1 µg/ml [% inhibition]
B8	81.3	85.8	71.6	84.3
